Laboratory results as given in patent US20250206813A1 (NVH MEDICINAL, published 2025).
Blank lines part the entries; values can stand above or below the binder they belong to.

Experiments:
[1] = target: T1, PCPE-1 (Procollagen C-proteinase enhancer-1) glycoprotein, human (human, UniProt Q15113 26-449); test: SPR competition: PCPE-1 (5 nM) co-injected with the mix on immobilized Mini III; mix of VHH-I5 and VHH-H4, 5 nM PCPE-1
T1 construct: mature; Secreted recombinant protein; also called purified human PCPE-1
T1 sequence (looked up): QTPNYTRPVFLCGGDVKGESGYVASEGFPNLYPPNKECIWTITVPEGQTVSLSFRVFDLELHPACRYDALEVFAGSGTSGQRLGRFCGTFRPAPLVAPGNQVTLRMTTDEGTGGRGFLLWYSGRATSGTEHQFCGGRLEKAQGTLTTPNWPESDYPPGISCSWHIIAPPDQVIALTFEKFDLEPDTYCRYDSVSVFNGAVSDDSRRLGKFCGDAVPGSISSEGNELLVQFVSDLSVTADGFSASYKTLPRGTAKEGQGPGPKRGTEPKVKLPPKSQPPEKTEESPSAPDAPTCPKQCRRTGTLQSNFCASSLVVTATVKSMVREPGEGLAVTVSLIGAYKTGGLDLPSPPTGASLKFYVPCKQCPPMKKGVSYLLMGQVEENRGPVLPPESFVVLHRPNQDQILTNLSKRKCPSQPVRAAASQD
Protocol: (§1) Surface plasmon resonance (SPR) experiments were carried out on a Biacore T200 (Cytiva). The ligand proteins, in solution in 10 mM HEPES pH 7.4 buffer for PCPE-1 or 10 mM sodium acetate pH 4.5 buffer for mini-procollagen III and streptavidin, are immobilized on CM5 chips by amine coupling. Analytes are diluted in running buffer (10 mM HEPES pH 7.4, 0.15 M NaCl, 5 mM CaCl₂), 0.05% P20) and injected at a flow rate of 30 or 50 μL/min. Competition, epitope binning and kinetics experiments were all carried out at 25° C. Regeneration was achieved by successive injection of 2 M guanidine chloride and 0.5 M EDTA for 30 sec. Sensorgrams were analyzed with Biacore T200 Evaluation v3.2.1 (Cytiva), using the most suitable models. IC50 was determined by non-linear regression using GraphPad Prism (v8.2.1).
What is more, their antagonistic effects are additive, and co-injection of a mixture of VHH-I5 and VHH-H4 with PCPE-1 virtually eliminates its interaction with Mini III.

[2] = target: T1, PCPE-1 (Procollagen C-proteinase …); test: SPR competition: PCPE-1 (5 nM) co-injected with D1 (0-200 nM) on immobilized Mini III
Protocol: as §1
Similarly, the addition of diab-D1 completely blocks the stimulation of CPIII-Long cleavage by PCPE-1 (FIG. 4C).

[3] = target: T1, PCPE-1 (Procollagen C-proteinase …); test: SPR, increasing concentrations of D1 (0-250 nM) on immobilized PCPE-1, Langmuir model
Protocol: as §1
(§2) 21, produced in bacteria. The interaction of diab-D1 with PCPE-1 was assessed by SPR, by injecting increasing concentrations of diab-D1 onto immobilized PCPE-1.

[4] = target: T1, PCPE-1 (Procollagen C-proteinase …); test: SPR, D1 (0-250 nM) injected over immobilized PCPE-1, 1:1 binding model (Langmuir)
Protocol: as §1, §2

[5] = target: T1, PCPE-1 (Procollagen C-proteinase …); test: SPR competition: PCPE-1 (5 nM) co-injected with D1 (0-200 nM) over immobilized mini-procollagen III; blocked ligand: Mini III
Protocol: FIG. 4B: Inhibition of PCPE-1/mini-procollagen III interaction in the presence of D1: the interaction of PCPE-1 (5 nM) with immobilized mini-procollagen III is measured and compared with the interaction obtained when PCPE-1 (5 nM) is co-injected with increasing amounts (0-200 nM) of D1. The % residual PCPE-1 uptake is plotted as a function of D1 concentration.
as §1

IC50 [1]: ~20 nM
B1: mix of VHH-I5 and VHH-H4 (other)
VHH 1: MAQVQLVESGGGLVQPGGFLRLLCTASGNIFSSNTMGWYRRAPGKQREWVASISKGGSTNYADSVKDRFTISRSITKNTVYLQMVNLKPEDTAVYYCNPVPDSDNYASGQGTQVTVSS
VHH 2: MAEVQLQASGGGFVQPGGSLRLSCAASGFTSEISNMGWFRQAPGKEREFVSAISGTHTTQTYYADSVKGRFTISRDNSKNTVYLQMNSLRAEDTATYYCAAEQDMSDLWLGSYWGQGTQVTVSS
notes: Not one molecule: two separate nanobodies added together; the two chains are not linked; also called mixture of VHH-I5 and VHH-H4; VHH-I5 and VHH-H4 co-injected; not shown: C-terminal 6-His tag

IC50 [2]: ~3.5 nM
Kd [3]: 0.32 nM
koff [4]: 0.000515 s⁻¹
kon [4]: 1.6e+06 M⁻¹ s⁻¹
IC50 (read off the curve) [5]: ~3 nM
B2: bivalent nanobody VHH-H4-GS8-VHH-I5 (D1) (other)
chain: MAEVQLQASGGGFVQPGGSLRLSCAASGFTSEISNMGWFRQAPGKEREFVSAISGTHTTQTYYADSVKGRFTISRDNSKNTVYLQMNSLRAEDTATYYCAAEQDMSDLWLGSYWGQGTQVTVSSAAAGSGSGSGSGSGSGGSQVQLVESGGGLVQPGGFLRLLCTASGNIFSSNTMGWYRRAPGKQREWVASISKGGSTNYADSVKDRFTISRSITKNTVYLQMVNLKPEDTAVYYCNPVPDSDNYASGQGTQVTVSS
notes: Single polypeptide of two VHHs (H4, linker, I5), biparatopic for PCPE-1 (CUB1 and CUB2); produced in bacteria; also called diab-D1; diabody D1; not shown: C-terminal tag of the pET29b(+) construct (6-His for the synthetic nanobodies)
